Assay results taken from publication doi:10.1101/2024.05.01.590489 (bioRxiv, 2024).

B1: Fab1-1 (Fab, V domains shown)
VH: EVQLVESGGGLVKPGGSLRLSCAASGVPFSDAWMNWVRQAPGKGLEWVGRIKSKKDGGTADYAAPVKGRFSISRDDSKKMLYLHMNSLKTEDTAVYYCTTEPSGYCSNGLCYTGNYWGQGTLVTVSS
VL: QPVLTQSSSASASLGSSVKLTCTLSSGHITYIIAWHQQQPGKAPRYLMKLEDSGSYNKGSGVPDRFSGSSSGADRYLTISNLQFEDEADYYCETWDSYTRVFGGGTKLT
B2: Fab2-4 (Fab, V domains shown)
VH: EVQLLESGGGLVHPGGSLRLSCAASGFPFSNFAMSWVRQAPGKGLEWVSTISGSSGSTYYADSVRGRFTISRDYSKNTVYLEMNSLRADDTAIYYCAKDRMITFGEVIVKHYDAFEIWGQGTRVAV
VL: DIQMTQSPSSLSASVGDRVTITCRASQTISTNVNWYQQKPGKAPKLLIYAASSLQSGVPSRFSGSGSGTDFTLTISSLQPEDFATFYCQQSYSAPLTFGEGTKV
B3: Fab1-4 (Fab, V domains shown)
VH: QVQVVESGAEVKKPGASVKVSCKASGYAFTTYYMHWVRQAPGQGLEWMGLINPSGDSITYAQRFQGRVTMTKDTSTSTVYMELSSLRSEDTAIYYCARDPNVAFYYGSGNYYKDNAMDVWGQGTTVTVSS
VL: not shown
B4: Fab1-2 (Fab, V domains shown)
VH: EVQLVESGGGLVQPGGSLRLSCAASGFIFSNYWMSWVRQAPGKGPEWVANIKQDGSANHYVDSVKGRFTISRDNAKNSLYLQMNSLRAEDTAVYYCAREAYQDWNYDYWGQGTLVTVSS
VL: DIQMTQSPSSLSASVGDRVTVTCRASEFISRYLNWYQQKPGKAPKVLIYAASSLQSGVPSRFSGSGSGTDFTLTISSLQPEDFATYYCQQSYSTPYTFGQGTKLEIK
B5: Fab3-4 (Fab, V domains shown)
VH: AVESGGGLVKPGGPLRLSCAASGFSLSDNYMTWIRQAPGKGLEWVSYISSSGSFINYADSVKGRFTISRDNAKNSLYLQMNSLRAEDTAVYYCARVLSSGGLTTSWRALWYFDVWGRGTLVTVS
VL: TVVTQEPSFSVSPGGTVTLTCGLTSGSVSTSYYPSWYQQTPGQTPRTLIYSTNIRSSGVPDRFSGSILGNKAALTITGAQADDECDYYCVLYMGSGIWVFGGGTKLTVL
B6: Fab2-1 (Fab, V domains shown)
VH: EVQLLESGGGLVQPGKSLRLSCAASGFSFSNYAMSWVRQAPGKGLEWVSGISGSGGSTNYAESVRGRFTISRDNSKNTLYLEMNSLRVEDTAVYYCAKGMSYYDRSGYFWAKYHYGMDVWGQGITVTVSS
VL: not shown
B7: Fab1-7 (Fab, V domains shown)
VH: QVQLQESGPGLVKPSETLSLTCTVSGDSIRSYYWSWIRQPPGKGLEWIGHIYYSGSTNYKPSLKSRATILVDTSKNQFSLKLRSVTAADTAVYYCAREMTGVAGRGWDHWGQGTLVTVSS
VL: ALTQPPSASGTPGQRVTISCSGSSSNIGSNTVNWYQQLPGTAPKLLIFINNQRPSGVPDRFSGSKSGTSASLAISGLQSEDEADYYCTTWDGSLNGYVFGTRTEVTVL
B8: Fab2-2 (Fab, V domains shown)
VH: QVQLQESGPGLVKPSVTLSLTCTVSGDSISTYYWSWVRQPPGKGLEWIGYIYYSGNTNYNPSLKSRVTMSVDTSKNQFSLKLNSVTAADTAVYYCARTHHDYGDYRPSYYFDYWGQGTLVTVSS
VL: QSALTQPASVSGSPGQSITISCTGTSSDVGAYDYVSWYQQHPGKAPKLMIYDVSNRPSSGVSNRFSGSKSGNTASLTISGLQAEDEADYYCSSYTSSSTVILGGGTKLTVL
B9: Fab1-6 (Fab, V domains shown)
VH: QVQLVESGAEVKQPGASVKVSCKASGYIFTSHNIHWVRKAPGQGLEWMGKINPSGGDANYAQKFQGRVVMTRDTSTNTVYVQLRSLRFEDTAVYYCARVHDFWSGYHRALDIWGQGTMVIVSS
VL: VLTQPPSASGTPGQTVTISCSGSSSNVGSHSVNWYQHLPGTAPKLLIYSNHRRPSGVPDRFSGSKSDTSASLAISGIQSEDEADYYCATWDGRLNVLFGGGTKLTVL
B10: Fab2-7 (Fab, V domains shown)
VH: EVQLLESGGGLVQPGGSLRLSCAASGFTFSTYAMNWVRQAPGKGLEWVAGISASGGSAYYVDSVEGRFTISRDNSNNMLYLQMNSLRAEDTAVYYCAKAVYAITMVRGSITTNYYHYYAMDVWGQGTTVTV
VL: EIVLTQSPGTLSLSPGERATLSCRASQGVSSNYLAWYQQKPGQAPRLLIYDASNRATGIPDRFSGSGSGTDFTLTISRLEPEDFAVYYCQQYGSSPPLTFGGGTKVQI
B11: Fab3-1 (Fab, V domains shown)
VH: EVQLLESGGGLVQPGGSLRLSCEASGFTFSRYPMNWVRQAPGKGLEWVSHISASGGTTYYADTVKGRFSISRDNSKNTLYLEMNSLRAEDTAIYFCAKDYPPDEVTMIVVGMPYFDSWGLGTLVSVSS
VL: not shown
B12: Fab2-6 (Fab, V domains shown)
VH: VQLLESGGALVQPGGSLRLSCAASGFSFSNYAMSWVRQAPGKGLEWVSTISASGGTTYFADSVKGHFTISRDNSKNTLYLQMDSLRAEDTAVYYCAKDPNYYDLSGYFLGGYYFDYWGQGTLVTVSS
VL: EIVLTQSPGTLSLSPGERATLSCRASQSVRSSYLAWYQQKPGQAPRLLIYGASSRATDIPDRFSGSGSGTDFTLTISRLEPEDFAVYYCQQYGTSPAFGGGTKV
B13: Fab2-3 (Fab, V domains shown)
VH: VQLVESGGGLVKPGGSLRLSCATSGFTFSDYYMSWIRQAPGKGLEWVSYISSSGSTIYYADSVKGRFTMSRDNAKNSLFLRMNSLRAEDTAVYYCARDQITVDREVIRAHYYYGMDVWGQGTTVTVS
VL: DIQMTQSPSSVSASVGDRVTITCRASQGINSYLAWYQQKPGKAPKLLIYAASSLESGVPSRFSGSGSGTDFTLTISSLQPEDFATYYCQQANSFPLTFGGGTKVDI
B14: Fab1-5 (Fab, V domains shown)
VH: EVQLVESGGGLVKPGGSLRLSCAASGFMFSSYSMNWVRQAPGKGLEWVSSISRSDSYIDYADSVKGRFTISRDTAMNVLYLQMDSLRAEDTGVYYCARTHVFNMFREVINDDYYGMDVWGQGTTVTVS
VL: ALTQPASVSGSPGQSITISCTGTSSDFGIYNSVSWYQHHPGKAPKLMIFGVSNRPSGVSNRFSGSKSGNTASLSISGLQAEDEADYYCSSFTARSTVVFGGGTKLTVL
B15: Fab1-3 (Fab, V domains shown)
VH: VQLVESGGGVVQPGRSLRLSCAASGFSFSSFVFHWVRQAPGKGLEWVAVISYDGSNKNYADSVKGRFTISRDNSKNTLFLQMNSLSADDTAVYYCARGAICSSTTCYLGDSYYFYGMDVWGQGTTVTVSS
VL: LTQPPSVSGAPGQRVTISCTGSRSNIGAGYDVHWYQQLPGTAPKLLIYGNSNRPSGVPDRFSGSKSGTSASLAITGLQTDDEADYYCQSYDSSLSGSVFGGGTKLTVL
B16: Fab3-5 (Fab, V domains shown)
VH: EVQLVESGGGLVQPGGSLRLSCAASGFTFSNYGMNWVRQAPGKGLEWVSYISSGGTIYYADSVKGRFTISRDNAKNSVYLQMNSLRAEDTAVYYCARDPAYCGDDCYTIPAHYFDYWGQGTPVTVS
VL: DIQMTQSPSSLSASVGDRVTITCRTSQSISRYLNWYQQKPGKAPKLLIYAASSLQSGVPSRFTGSGSGTDFTLTISSLQPEDFATYYCQQSYSIPPVTFGQGTRVD
B17: Fab3-3 (Fab, V domains shown)
VH: QVQLQESGPGLVKSSETLSLTCTVSGESISSSSHYWGWIRQPPGKGLEFLGNVYYLGSTYYNPSLESRVTILLDTSKNQFSLKVNSVTVADTAVYYCARHGAGSYSGLFFDYWGQGARVIVSS
VL: DIQMTQSPSFVSASVGDRVNITCRASQGINSWLAWYQQKPGKAPKLLIYSASSLQSGVPSRFSGSGSGTDFTLTISTLQPEDFATYYCQQANSFPYTFGQGTKVD
B18: Fab2-5 (Fab, V domains shown)
VH: EVQLVESGGGLVKPGGSPRLSCAASGFNFGSYSMNWVRQAPGKGLEWVSSISSSSSYIYYADSVKGRFTISRDNAKHSLYLQVNSLRAEDTAVYYCARDPTTYGYNSAWDKKGWYFDLWGRGTLLTVS
VL: VLTQPPSVSAAPGQMVTISCSGSSSNIGNDYISWYQQLPGTAPKLLIYDNNERPSGIPDRFSGSKSGTSATLGITGVQTGDEADYYCGTWDSSLSAWVFGEGTKLTVV
B19: Fab3-6 (Fab, V domains shown)
VH: EVQLVESGGGLVQPGGSLRLSCSASGFHFSSYEMNWVRQAPGKGLEWVSYISSSGTYIDYADSVKGRFTISRDNPANSLYLQMYSLRAEDTAVYYCARRLWFGELPYSYYYGMDVWGQGTTVTVSS
VL: ALTQPASVSGSPGQSITISCTGTSSDIGGYNYVSWYQQHPGKAPELLIFDVSNRPSGVSNRFSGSKSGNTASLTISGLQAEDEADYHCCSYTRTSTVIFGGGTKLTVL
B20: Fab3-7 (Fab, V domains shown)
VH: QVQLQESGPGLVKPSETLSLTCTVSGGSISNYYWNWIRQPPGKGLEWIGYVHYSGSTNYNPSLKSRVSVSVDTSKNQFSLNLGSVTAADTAVYYCARQSRSYYNEVITDPKYNFDYWGQGTLVTVSS
VL: QSALTQPASVSGSPGQSITISCTGTSSDVGGYDYVSWYQQHPGKAPKLMIYDVSNRPSGVSNRFSGSKSGNTASLTISGLQAEDEADYYCSSYTSISTLVFGGGTKLTVL
B21: Fab3-2 (Fab, V domains shown)
VH: EVQLLESGGGLVQPGGSLRLSCAASGFTFSNYAMSWVRQAPGKGLEWVSLISGSGGSIDYADSVKGRFTISRDNSKNTLYLQMDSLRAEDTAVYYCSKDPIYYDLSGYYAGRIYYFDYWGQGTLVTVSS
VL: EIVMTQSPATLSVSPGDTATLSCRASHSVSRDLAWYQQKPGQAPRLLIYDASTRATGIPARFSGSGSGTEFTLTISSLQSEDFAVYYCQQYINWVTFGPGTKVDIE

target: AAV9 capsid (adeno-associated virus serotype 9 (AAV9), UniProt Q6JC40); assay: cryo-EM structure

| Binder | binding result | stoichiometry N [Fabs per capsid] |
| --- | --- | --- |
| B1 | binds | – |
| B2 | binds | – |
| B3 | binds | – |
| B4 | binds | – |
| B5 | binds | – |
| B6 | binds | – |
| B7 | binds | – |
| B8 | binds | – |
| B9 | – | ≤ 24 |
| B10 | – | ≤ 60 |
| B11 | binds | – |
| B12 | binds | – |
| B13 | binds | – |
| B14 | binds | – |
| B15 | binds | – |
| B16 | binds | – |
| B17 | binds | – |
| B18 | binds | – |
| B19 | binds | – |
| B20 | binds | – |
| B21 | binds | – |
